Substitutions are numbered along the chain they refer to. Names and notes keep the numbering of the source. Like-named read-outs stand apart in the source and are kept apart here.
B1: OST577-IgG1 T250D (antibody)
heavy: not shown
light: SYVLTQPPSVSVAPGQTARITCGGDNIGSKSVNWFQQKPGQAPVLVVYDDNERPSGISERFSGSNSGNTATLTISRVEAGDEADYYCQVWDSSSDHVVFGGGTKLTVLGQPKAAPSVTLFPPSSEELQANKATLVCLISDFYPGAVTVAWKADSSPVKAGVETTTPSKQSNNKYAASSYLSLTPEQWKSHRSYSCQVTHEGSTVEKTVAPTECS
B2: Hu1D10-IgG3 wild-type (antibody)
heavy: QVQLQESGPGLVKPSETLSLTCTVSGFSLTNYGVHWVRQSPGKGLEWIGVKWSGGSTEYNAAFISRLTISKDTSKNQVSLKLNSLTAADTAVYYCARNDRYAMDYWGQGTLVTVSSASTKGPSVFPLAPCSRSTSGGTAALGCLVKDYFPEPVTVSWNSGALTSGVHTFPAVLQSSGLYSLSSVVTVPSSSLGTQTYTCNVNHKPSNTKVDKRVELKTPLGDTTHTCPRCPEPKSCDTPPPCPRCPEPKSCDTPPPCPRCPEPKSCDTPPPCPRCPAPELLGGPSVFLFPPKPKDTLMISRTPEVTCVVVDVSHEDPEVQFKWYVDGVEVHNAKTKLREEQYNSTFRVVSVLTVLHQDWLNGKEYKCKVSNKALPAPIEKTISKAKGQPREPQVYTLPPSREEMTKNQVSLTCLVKGFYPSDIAVEWESNGQPENNYNTTPPMLDSDGSFFLYSKLTVDKSRWQQGNIFSCSVMHEALHNRYTQKSLSLSPGK
light: DIQMTQSPSSLSASVGDRVTITCRASENIYSYLAWYQQKPGKAPKLLVSNAKTLAEGVPSRFSGSGSGKQFTLTISSLQPEDFATYYCQHHYGNSYPFGQGTKLEIKRTVAAPSVFIFPPSDEQLKSGTASVVCLLNNFYPREAKVQWKVDNALQSGNSQESVTEQDSKDSTYSLSSTLTLSKADYEKHKVYACEVTHQGLSSPVTKSFNRGEC
B3: Hu1D10-IgG4 M428L (antibody)
heavy: not shown
light: B2 light
B4: Hu1D10-IgG3 M428L (antibody)
heavy: B2 heavy with M474L
light: B2 light
B5: Hu1D10-IgG4 T250Q/M428L (antibody)
heavy: not shown
light: B2 light

What was measured:
[1] = target: T1, recombinant, GPI-linked human FcRn on cell line NS0 HuFcRn (memb), clone 7-3 (human, UniProt P55899 24-297; P61769 21-119); test: pH-dependent binding and release FACS on NS0 cells expressing human FcRn (FIG. 15B)
T1 construct: Expressed from pDL208 on the surface of NS0 cells; also called human neonatal Fc receptor; not shown: human c-myc decapeptide flanked by linker peptides, then GPI linkage signal of human decay accelerating factor (vector p)

[2] = target: T1, recombinant, GPI-linked human FcRn on …; test: IC50 of wild-type / IC50 of this antibody, same assay
[3] = target: T2, recombinant, GPI-linked rhesus FcRn on cell line NS0 RhFcRn, clone R-3 (rhesus, UniProt H9Z6D2 24-297; Q6V7J5 21-119, GPI-linked); test: as above
T2 construct: Expressed from pDL410 on the surface of NS0 cells; not shown: human c-myc decapeptide flanked by linker peptides, then GPI linkage signal of human decay accelerating factor (vector p)

[4] = target: T1, recombinant, GPI-linked human FcRn on …; test: as above; remark: listed apart in the source
[5] = target: T2, recombinant, GPI-linked rhesus FcRn on …; test: as above; remark: listed apart in the source
[6] = target: T1, recombinant, GPI-linked human FcRn on …; test: competition FACS vs biotinylated human IgG on NS0 cells expressing human FcRn, FBB pH 6.0
[7] = target: T2, recombinant, GPI-linked rhesus FcRn on …; test: competition FACS vs biotinylated human IgG on NS0 cells expressing rhesus FcRn, FBB pH 6.0
[8] = target: T1, recombinant, GPI-linked human FcRn on …; test: competition FACS vs biotinylated human IgG on NS0 cells expressing human FcRn, FBB pH 6.0; remark: listed apart in the source
[9] = target: T2, recombinant, GPI-linked rhesus FcRn on …; test: competition FACS vs biotinylated human IgG on NS0 cells expressing rhesus FcRn, FBB pH 6.0; remark: listed apart in the source

Binder | Relative Binding [2] | Relative Binding [3] | Relative Binding [4] | Relative Binding [5] | IC50 [6] | IC50 [7] | also measured
B1 |  |  |  |  |  |  | binding result [1]: binds
B2 | 1 ratio | 1 ratio |  |  |  |  | 
B3 |  |  | 15 ratio | 15 ratio | 5.03 µg/mL | 6.64 µg/mL | 
B4 | 6.3 ratio | 4.6 ratio |  |  |  |  | IC50 [8]: 2.29 µg/mL; IC50 [9]: 3.03 µg/mL
B5 |  |  | 71 ratio | 77 ratio | 1.07 µg/mL | 1.27 µg/mL | 
